Results on one molecule are retold here after patent US20040171794A1 (DYAX, published 2004).

The target of this assay is T1, human neutrophil elastase (human, UniProt P08246 30-247, limits assumed).
T1 construct: also called HNE; hNE
T1 sequence (looked up): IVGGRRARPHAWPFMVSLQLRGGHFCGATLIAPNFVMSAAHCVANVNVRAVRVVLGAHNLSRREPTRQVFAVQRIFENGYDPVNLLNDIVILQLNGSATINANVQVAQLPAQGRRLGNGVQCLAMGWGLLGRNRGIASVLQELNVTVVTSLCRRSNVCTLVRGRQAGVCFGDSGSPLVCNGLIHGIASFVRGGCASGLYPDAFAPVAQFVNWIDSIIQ
Description: equilibrium inhibition of HNE activity on a fluorogenic peptide substrate, tight-binding model, 24 h incubation at 30 C.
Description: Inhibition of hNE was determined at 30° C. in 50 mM HEPES, pH 7.5, 150 mM NaCl, and 0.1% Triton X-100. […] Residual enzymatic activities were determined from the relative rates of substrate hydrolysis. The hydrolysis reaction was initiated by addition of N-methoxysuccinyl-Ala-Ala-Pro-Val-7-amino-methylcoumarin (SEQ ID No.: 41) as substrate. Enzymatic cleavage of this substrate releases the methylcoumarin moiety with concomitant increase the sample fluorescence. The rate of substrate hydrolysis was monitored at an excitation of 360 nm and an emission of 460 nm. Plots of the percent remaining activity versus inhibitor concentration were fit by nonlinear regression analysis to Equation 1 to determine equilibrium dissociation constants.

B1: DX-890 (peptide)
chain: EACNLPIVRGPCIAFFPRWAFDAVKGKCVLFPYGGCQGNGNKFYSEKECREYCGVP
notes: also called native DX-890
For B1, the binding result is “binds”.
